# The supplement of paper PMC7877785
# ± gives the uncertainty stated by the source.
# Test: self-splicing fitness, log relative to wild type (ln ratio); higher = more splicing; Tetrahymena group I intron in knt gene, E. coli kanamycin selection, DiMSum; sequences stand for … in CUCUCU…GGAGGGAAAAGUUAUCAGGCAUGCACCUGGUAGCUAGUCUUUAAACCAAUAGAUUGCAUCGGUUUAAAAGGCAAGACCGUCAAAUUGCGGGAAAGGGGUCAACAGCCGUUCAGUACCAAGUCUCAGGGGAAACUUUGAGAUGGCCUUGCAAAGGGUAUGGUAAUAAGCUGACGGACAUGGUCCUAACCACGCAGCCAAGUCCUAAGUCAACAGAUCUUCUGUUGAUAUGGAUGCAGUUCACAGACUAAAUGUCGGUCGGGGAAGAUGUAUUCUUCUCAUAAGAUAUAGUCGGACCUCUCCUUAAUGGGAGCUAGCGGAUGAAGUGAUGCAACACUGGAGCCGCUGGGAACUAAUUUGUAUGCGAAAGUAUAUUGAUUAGUUUUGGAGUACUCGUGGUCG
# In short: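 Fitness was computed with DiMSum as the error-weighted combination of replicate fold changes, kanamycin versus none, each normalised to wild type. The library randomised all eight intron nucleotides of the P1ex region, with the intron placed in the knt kanamycin-resistance gene on pET-22b(+) in E. coli BL21(DE3). Six replicate transformations were grown overnight at 37°C or 30°C on LB agar with or without 25 μg/mL kanamycin, plus 100 μg/mL carbenicillin, 50 μM IPTG and 0.2% rhamnose. Pooled colonies were amplicon-sequenced on an Illumina HiSeq 2500.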
Sequence,self-splicing fitness (ln) (30 °C),self-splicing fitness (ln) (37 °C)
ACGGAGCAAUAUUACGCACU,-3.4 ± 0.34,-1.32 ± 0.23
AAUGAGCAAUAUUACGGACA,-2.93 ± 0.45,–
UGGUAGCAAUAUUACGUUAG,-1.9 ± 0.067,-0.599 ± 0.072
CUCCAGCAAUAUUACGGUCG,-0.742 ± 0.054,-0.679 ± 0.071
CCAGAGCAAUAUUACGGUCU,-4.02 ± 0.18,-2.31 ± 0.23
ACAAAGCAAUAUUACGGAAC,-3.33 ± 0.13,-2.43 ± 0.15
GGGUAGCAAUAUUACGGCUG,-0.592 ± 0.11,-1.05 ± 0.14
CCAGAGCAAUAUUACGCUAG,-3.84 ± 0.29,-2.38 ± 0.28
UGUCAGCAAUAUUACGUGUU,-3.51 ± 0.15,-1.23 ± 0.11
AACAAGCAAUAUUACGAAUA,-1.97 ± 0.1,-1.24 ± 0.11
AGGAAGCAAUAUUACGGCUG,-0.459 ± 0.13,-0.0568 ± 0.15
AUGCAGCAAUAUUACGAAAC,-2.82 ± 0.46,-0.989 ± 0.27
UCUAAGCAAUAUUACGACGA,-0.414 ± 0.2,0.116 ± 0.17
GAUCAGCAAUAUUACGACGG,-2.63 ± 0.28,-0.19 ± 0.25
AGGUAGCAAUAUUACGAGAG,-3.887 ± 0.03,-2.71 ± 0.039
CUAUAGCAAUAUUACGACGG,0.143 ± 0.13,0.155 ± 0.15
UGCCAGCAAUAUUACGGGUU,-2.46 ± 0.13,-2.34 ± 0.12
UUCGAGCAAUAUUACGCUGU,-3.54 ± 0.2,-2.14 ± 0.21
AUCAAGCAAUAUUACGACUG,-1.59 ± 0.11,-1.27 ± 0.13
UACGAGCAAUAUUACGGACG,-2.32 ± 0.12,-1.24 ± 0.15
UACCAGCAAUAUUACGCUGG,-3.35 ± 0.18,-2.77 ± 0.22
GCACAGCAAUAUUACGCAGU,-1.65 ± 0.12,-1.32 ± 0.13
CCUCAGCAAUAUUACGUGUA,-2.19 ± 0.13,-2.16 ± 0.15
AUUGAGCAAUAUUACGACAC,-2.36 ± 0.19,-1.45 ± 0.22
GUCAAGCAAUAUUACGCCGU,-2.32 ± 0.31,-0.783 ± 0.27
AGCUAGCAAUAUUACGAGGU,-2.73 ± 0.14,-1.31 ± 0.13

Sequence,self-splicing fitness (ln) (30 °C),self-splicing fitness (ln) (37 °C)
AAGUAGCAAUAUUACGCCUA,-0.227 ± 0.11,-0.477 ± 0.12
GCUCAGCAAUAUUACGGGCA,-1.76 ± 0.17,-0.69 ± 0.17
AGCUAGCAAUAUUACGGGUC,-2.59 ± 0.17,-1.7 ± 0.15
AAAAAGCAAUAUUACGGUAU,-2.2 ± 0.08,-0.966 ± 0.08
CUGAAGCAAUAUUACGUUUA,-3.97 ± 0.24,–
CCUUAGCAAUAUUACGAUUG,-1.85 ± 0.098,-0.965 ± 0.1
GAGAAGCAAUAUUACGGACG,-0.812 ± 0.12,-0.528 ± 0.2
UGGUAGCAAUAUUACGACUC,-0.656 ± 0.23,-0.807 ± 0.35
ACCUAGCAAUAUUACGUGAG,-0.357 ± 0.048,-0.0328 ± 0.061
CUAUAGCAAUAUUACGACCU,-2.85 ± 0.42,–
UAGGAGCAAUAUUACGAAAU,-2.12 ± 0.28,-2.31 ± 0.42
AAUCAGCAAUAUUACGCUCG,-0.0659 ± 0.091,-0.114 ± 0.12
CCUCAGCAAUAUUACGCCCU,-2.29 ± 0.24,-2.73 ± 0.48
CAAGAGCAAUAUUACGUACG,-0.91 ± 0.084,0.0935 ± 0.11
ACUAAGCAAUAUUACGGACU,0.14 ± 0.054,0.436 ± 0.076
GCAAAGCAAUAUUACGUCGG,-3.15 ± 0.19,-1.22 ± 0.13
GUAUAGCAAUAUUACGACGU,-0.443 ± 0.069,0.436 ± 0.092
CUAGAGCAAUAUUACGAAUA,-3.49 ± 0.48,-1.86 ± 0.34
GCAGAGCAAUAUUACGGCUU,-1.92 ± 0.27,-0.671 ± 0.21
GGACAGCAAUAUUACGUCUC,-4.03 ± 0.18,-2.57 ± 0.2
GCACAGCAAUAUUACGACAC,-0.345 ± 0.078,0.29 ± 0.093
UAUCAGCAAUAUUACGUAUA,-0.696 ± 0.088,-0.258 ± 0.1
ACCGAGCAAUAUUACGGGCG,-1.64 ± 0.083,-0.0363 ± 0.088
AUGGAGCAAUAUUACGUCGC,-2.11 ± 0.47,-1.78 ± 0.48
UCAGAGCAAUAUUACGACGU,-1.87 ± 0.2,0.0812 ± 0.17
GAUAAGCAAUAUUACGCGCA,-0.808 ± 0.085,0.383 ± 0.13

Sequence,self-splicing fitness (ln) (30 °C),self-splicing fitness (ln) (37 °C)
UUAUAGCAAUAUUACGAUUU,-1.23 ± 0.11,-0.501 ± 0.13
GACAAGCAAUAUUACGAUAG,-2.76 ± 0.22,-0.828 ± 0.12
AUAUAGCAAUAUUACGGCAA,-0.751 ± 0.18,-0.989 ± 0.19
ACCUAGCAAUAUUACGGAGC,-2.67 ± 0.12,-1.28 ± 0.14
GGGUAGCAAUAUUACGGGAA,-3.91 ± 0.42,-1.86 ± 0.27
CGCUAGCAAUAUUACGUGAU,-2.34 ± 0.12,-3.44 ± 0.25
UAUUAGCAAUAUUACGAGCA,-0.606 ± 0.12,-0.18 ± 0.17
UUCCAGCAAUAUUACGGUUC,-2.81 ± 0.16,-1.99 ± 0.24
CGUAAGCAAUAUUACGACUU,-3.09 ± 0.23,-1.35 ± 0.22
GGCUAGCAAUAUUACGUGGG,-2.64 ± 0.17,-1.91 ± 0.2
GCAGAGCAAUAUUACGGUUG,-3.01 ± 0.34,-2.87 ± 0.47
UGGUAGCAAUAUUACGCUCG,0.322 ± 0.17,0.532 ± 0.25
GCCCAGCAAUAUUACGCAAG,-2.79 ± 0.093,-2.46 ± 0.14
AGCUAGCAAUAUUACGAACG,-0.938 ± 0.19,-1.61 ± 0.18
GGGGAGCAAUAUUACGUUCA,-1.86 ± 0.25,-1.35 ± 0.19
UCUGAGCAAUAUUACGAGUC,-2.7 ± 0.41,–
GAGUAGCAAUAUUACGCUAU,-3.73 ± 0.27,–
AUGCAGCAAUAUUACGCUUC,-4.78 ± 0.34,-3.07 ± 0.34
CUGGAGCAAUAUUACGUUUA,-3.17 ± 0.18,-3.28 ± 0.22
AACUAGCAAUAUUACGCCAA,-2.83 ± 0.21,-1.63 ± 0.16
UACUAGCAAUAUUACGCGUA,-2.63 ± 0.22,-2.33 ± 0.23
UACCAGCAAUAUUACGUGUA,-2.59 ± 0.12,-1.67 ± 0.1
UCUAAGCAAUAUUACGGAGC,–,-1.68 ± 0.37
AUGAAGCAAUAUUACGGCUG,0.352 ± 0.066,0.0954 ± 0.087
GUCAAGCAAUAUUACGCGAA,-1.88 ± 0.085,-0.888 ± 0.091
